Test results: publication PMC10301331, “Molecular Engineering of E. coli Bacterioferritin: A Versatile Nanodimensional Protein Cage” (Molecules, 2023)

Target: the molecule itself
Assay: SEC + other: dynamic light scattering; His-tag Bfr (alone or in ratios with WT Bfr) declustered at pH 2.0, incubated with Pro-Q Sapphire 365 NTA dye and Ni2+, reclustered by dialysis to pH 7.0 (methods: pH 8.0), then size exclusion

B1: His-tagged Escherichia coli bacterioferritin (C-terminal His-tag) (natural protein)
chain: not shown
notes: Escherichia coli bacterioferritin (Bfr) subunit; the gene coding for E. coli Bfr was cloned; also called His-tag Bfr; His-tagged Bfr; source: details in Supplementary Materials; not shown: His6 (after a two amino acid linker Leu-Glu), C-terminal, kept; copies: 24
stoichiometry N: 24
